The target in this test is Unp-CTD (Saccharomyces cerevisiae, synthetic peptide, N-terminal FAM label, unphosphorylated; consensus RNAPII Rpb1 CTD heptad x3). The test is described as follows: FP; unphosphorylated CTD peptide.

B1: MBP-Asr1 (natural protein)
chain: MEECPICLADDQEGEQFGCLNVCGHKFHLNCIREWHKYSINLKCPICRVESTHLEVGEGQHALSINLKMGFMIKNAIDYVGAETTNERNEDDTGEQDQEIEFLSERLRGTLVMDTIKIIQCSICGDTDVSRLSLYCQDCEAIYHETCLRGLACEVGDRNTWQECTDCRSNALLELRMGAISSQLASYDSRNSMIFAGELRDKHSVKTQQMYEQIRNAKHKIQMHVRRALDRYPLPLLRFKDAYKHVNKQVSRKLYRLSDNKYLPDQYDYDSLARTGVHTELLIYCHDE
The term Kd denotes a measure of binding affinity in units of concentration. A higher Kd goes with lower affinity. Take B1: the Kd is 4.06 mM.

The values above are taken from publication PMC12270679 (2025).
